Substrate: CC(=O)CC(=O)SCCNC(=O)CCNC(=O)[C@H](O)C(C)(C)COP(=O)(O)OP(=O)(O)OC[C@H]1O[C@@H](n2cnc3c(N)ncnc32)[C@H](O)[C@@H]1OP(=O)(O)O
Assay: initial rate versus acetoacetyl-CoA concentration, Michaelis-Menten fit
Format: biochemical, Ginkgo biloba
Settings: acetoacetyl-CoA varied 20-100 μM (Km lies far above the range); pH, temperature and acetyl-CoA concentration not given
Source text: initial rate versus acetoacetyl-CoA concentration, Michaelis-Menten fit on GbHMGS1

B1: GbHMGS1 (Ginkgo biloba) (protein)
chain: MASHPENVGILAMDIYFPSTCVQQDALETFDGVSKGKYTIGLGQDCMAFCMDLEDVISMSLTVVSSLLDKYGIDPKRIGRLEVGSETVIDKSKSIKTWLMQIFEECGNSEIEGVDSTNACYGGTAALLNCVNWVESRSWDGRYGLVVSTDSAVYAEGPARPTGGAAAVAMLIGPNAPIVFESKYRGTHMSHAYDFYKPNLASEYPVVDGKLSQTCYLMGLDSCYKRFCNRFEEGEGRQFSLSDADYVAFHSPYNKLVQKSFARLLFNDFSRHASSVGKDAQEKLEPYAGLSDEDSYSSRELEKVSQQVARPLYDVKVQPSTLLPKQVGNMYTASLYAAFASIIHNEHDTLEGQRVLMFSYGSGLASTMFSLKIREGQHPFTLTNIADVMDVSSKLDSRHVLSPEDFMVNMKLMETLYGAKDFISCSDHNLLRSGTFYLTQVDSMYRRFYAQKVASPDDTHEKVKLANGIIHDQL
Km: 689 ± 32.6 µM
Vmax: 0.0371 µM/min
kcat: 3.26 ± 0.218 s⁻¹
kcat/Km: 4670 ± 167 M⁻¹ s⁻¹

Reference: publication PMC6151752, “Characterization, Function, and Transcriptional Profiling Analysis of 3-Hydroxy-3-methylglutaryl-CoA Synthase Gene (GbHMGS1) towards Stresses and Exogenous Hormone Treatments in Ginkgo biloba” (Molecules : A Journal of Synthetic Chemistry and Natural …, 2017)
